Patent publication US11124785B2, “Rothia subtilisins, S8A family proteases, as therapeutic enzymes for application in gluten intolerance disorders” (TRUSTEES OF BOSTON UNIVERSITY, priority 2016, dated 2021)

Experiments:
[1] = test system: casein; test: Casein zymography of R. aeria cell proteins; format: biochemical; details: excised bands 1-4, R. aeria cells, 1% casein
Procedure: Bands 1-4 were excised and subjected to mass spectrometric analysis of the amino acid sequences and identification of the protein. The protein was identified as BAV86562.1 from Rothia aeria.
SDS-PAGE and casein zymography—The four cell pellets were resuspended each in 200 μl zymogram sample buffer^2. To separate the proteins, the samples were applied to a non-reducing (no DTT or β-mercaptoethanol-containing) 6% SDS-PAGE gel of 16 cm×20 cm×0.15 cm, using a protean II xi cell system (Bio-Rad, Hercules, Calif.). The composition of this gel was the same as that of previously published 6% gliadin zymogram gels but without incorporation of gliadin^2. After electrophoresis at a constant voltage of 120V at 4° C., the gel was divided in two halves (“A-gel” and “B-gel”). One-half (“A-gel”) was stained with 0.1% Coomassie Brilliant Blue in 40% (v/v) methanol/10% (v/v) acetic acid. The other half (“B-gel”) was developed as a zymogram gel^3. (See FIGS. 12A and 12B). For this, the B-gel was washed twice for 30 min in buffer containing 2.5% Triton X-100 (renaturing buffer; Life Technologies, Carlsbad, Calif.), followed by washing twice for 1 h in buffer containing 20 mM Tris-HCl, pH 7.5 (developing buffer; Life Technologies, Carlsbad, Calif.). The B-gel was then incubated in developing buffer supplemented with 1% casein (Sigma, St. Louis, Mo.) at 37° C. for 1.5 h. […]

[2] = literature reference; cited from earlier work
[3] = test system: R. mucilaginosa enzyme preparation (Rmep); test: Inhibitor profile of Rmep (Suc-AAPF-pNA hydrolysis); format: biochemical, Rothia mucilaginosa; details: Eglin C 1.2 μM; Suc-AAPF-pNA
Procedure: Inhibitors AEBSF, Aprotinin, E-64, EDTA, PMSF and Eglin C were tested at final concentrations of 10 mM, 0.08 mM, 0.1 mM, 1.5 mM, 1 mM, and 0.06 μM, respectively. Rmep was added at a final concentration of 5.7 μg/ml. The percent inhibition was determined from the ratio of the initial velocities of hydrolysis of Suc-AAPF-pNA (SEQ ID NO: 4) in the absence and presence of inhibitor.
(§1) Hydrolysis of paranitroanilide-derivatized substrates—Paranitroanilide (pNA)-derivatized tripeptide substrates were chemically synthesized at >90% purity (21st Century Biochemicals, Marlborough, Mass.). The substrates obtained were Z-YPQ-pNA, Z-QQP-pNA, Z-LPY-pNA, Z-PFP-pNA, Z-PPF-pNA, where Z=benzyloxycarbonyl, Y=tyrosine, P=proline, Q=glutamine, L=leucine, and F=phenylalanine Suc-AAPF-pNA (SEQ ID NO: 4) was obtained from Sigma, where Suc=N-succinyl and A=alanine. The peptides were dissolved in 75-100% DMSO at 10 mM, and were used at a final concentration of 200 μM in 50 mM TrisHCl pH 8.0. Purified Rothia enzyme or subtilisin A from Bacillus licheniformis (Sigma) were tested at final concentrations of 1 μg/ml. Some experiments were conducted in the presence of inhibitors 4-(2-Aminoethyl) benzenesulfonyl fluoride (AEBSF), Aprotinin, E-64, EDTA, phenylmethanesulfonyl fluoride (PMSF) and Eglin C, which were tested at final concentrations of 10 mM, 0.08 mM, 0.1 mM, 1.5 mM, 1 mM, and 0.06-1.2 μM, respectively. Enzymes were preincubated with the inhibitors for 20 min before adding Suc-AAPF-pNA (SEQ ID NO: 4). Substrate hydrolysis was monitored for 10 h at 405 nm using a Genios microtiter plate reader (Tecan, Männedorf, Switzerland) in the kinetic mode at 37° C.

[4] = target: T1, subtilisin A (Bacillus licheniformis, UniProt P00780); test: Inhibition of subtilisin A by Eglin C; format: biochemical; details: Eglin C 1.2 μM; Suc-AAPF-pNA
T1 construct: purchased Sigma
Procedure: as §1

T1 sequence (P00780 106-379): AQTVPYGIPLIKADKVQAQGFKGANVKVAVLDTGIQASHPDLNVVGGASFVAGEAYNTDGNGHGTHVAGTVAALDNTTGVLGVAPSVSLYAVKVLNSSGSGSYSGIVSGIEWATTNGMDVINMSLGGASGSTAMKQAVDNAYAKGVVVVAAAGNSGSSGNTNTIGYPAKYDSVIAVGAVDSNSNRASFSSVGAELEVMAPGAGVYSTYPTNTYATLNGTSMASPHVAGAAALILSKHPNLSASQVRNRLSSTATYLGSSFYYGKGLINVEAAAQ

B1: KGJ00122.1: peptidase S8, subtilisin from Rothia dentocariosa (protein, listed as Rothia dentocariosa)
chain: MPKNTPIRGLSRACLSATLGVTMAITAGLPATAAPAGDPDTPVAQDIARNSREHAVLSDSMKKAEGNIPVFVQFKGKGAYEQTQSPAVLANKQAPINKQAEVQAIKTQVQSQAQAAAQSTGAKTLYTTHNIMRGVALQGDAAQIRALANNPEVERITPIVPKKKQNAGSVVDTGAAENWARENSGYTGKDVKIAVVDSGIDYTHSDFGGPGTVEAFNKATKLTEMPAADSGLYDAKKYIGGYDLVGDSYDGTNQTTPDNNPIDCSAGGHGTHVAGTAAGYGVNQDGTTFRGDYSKLTAEQLNQMKIGPGAAPEAQLYSFRVFGCTGTTAVVVQALDRTLDPNGDGDFSDRANIVNLSIGGEFSPPDDADAYAVESLNRQGVLAVVSAGNATDYYGRGDTYSDSGQPANAVSALTVANSIGSSYAVDSMEIQAPANVAGKVPGDYTVSYTYTGAKPEALTGTVVTPSESNKFGCEAFSAEDAAKIKDKWVFIEWANADGSLPCGSKVRFDNVEKAGGKGVVLSSEEEKPALPIGGNESIPGFRVAKSASAKVREAAATGELKVRLGADLKESLRVPSNKKDQLTASSARGYHGTYGYTKPDVAAPGNNISSARVGTGTGGISYTGTSMSAPFAAGVAAQVLQANQSYGPTQLKAAIMNSANHDVRTADGNVYAVDRVGSGRIDAKAAAETKVLLYNADRPAQVSQTFGVLEYAVNEGKQTLTREMTVENFDSHTHTYNISYAGSTDMPGVEFSLPSNITVNPGEKKNFTVTITIDPAAMEKTMDPAMEKTHNSVDPYGDGTELVPEQYRQFIASESGRILLTEGAATLRAPIHAAPKPASAMKVEGSSVEIPAGEHQANLKLTGTELNQRGYKSLLGAFEHGASIERTSPVKLDVSSNAKANMQHVGAASTAPALKASGGNPNDGLLAFGISTWANWDVVSTENTFTVNIDTDGNNRADYMLVTDRAKGIDFPIVRLYGYKNGNLEQIAYYPLNNAWGDTDTNMMDSNALVMAVPLKDLGLSAEKTKDIKYSVSATTQYAWTNVSETGWINYRPFDPKLWFSGTAATVPGFFADAPSSELVAHRAEGATDVKALFLHMHNTTGDLSGLNGAAGNRAQVLEVTEQQQLDPAPSRFTDVPAENQFYAEINWLAQRRITTGYPDGTFRPGENVERGAMAAYFYRLAGTPQFTAPDNPTFSDVPKSHPFYKEIEWMAARGITTGYGDGTFRPSDSVNRDAMAAFFYRYANSPQFAAPAASPFKDVPANSQFYKEIAWLAEQGITKGWDDGTYRPGEPIHRDAMAAFLYRYSDKVLK
[1]
  activity in the casein degradation assay (zymogram): gluten-degrading properties

B2: BAV86562.1: Rothia aeria protein annotated glycerol-3-phosphate ABC transporter, belongs to the subtilisin family (peptidase S8) (protein, listed as Rothia aeria)
chain: MAITAGLPATAAPAGDPDTPVAQDIARNSREHAVLSDSMKKAEGNIPVFVQFKGKGAYEQTQSPAVLANKQAPTNKQAEVQAIKTQVQSQAQAAAQSTGAKTLYTTHNIMRGVALQGDAAQIRALANNPEVERITPIVPKKKQNAGSVVDTGAAENWARENSGYTGKDVKIAVVDSGIDYTHADFGGPGTVEAFNKATKLTEMPAADSGLYDAKKYIGGYDLVGDSYDGTNQTAPDNNPIDCSAGGHGTHVAGTAAGYGVNQDGTTFRGDYSKLTAEQLNQMKIGPGAAPEAQLYSFRVFGCTGTTGVVVQALDRTLDPNGDGDFSDRANIVNLSIGGEFSPPDDADAYAVESLNRQGVLAVVSAGNATDYYGRGDTYSDSGQPANAVSALTVANSIGSSYAVDSMEIQAPANVAGKVPGDYTVSYTYTGAKPEALTGTVVTPSESNKFGCEAFSAEDAAKIKDKWVFLEWANADGSLPCGSKVRFDNVEKAGGKGVVLSSEEEKPALPIGGNESIPGFRVAKSASAKVREAAANGELKVRLGTDLKESLRVPSNKKDQLTASSARGYHGTYGYTKPDVAAPGNNISSARVGTGTDGISYTGTSMSAPFAAGVAAQVLQANQSYGPTQLKAAIMNSANHDVRTADGNVYAVDRVGSGRIDAKAAAETKVLLYNADRPAQVSQTFGVLEYAVNEGKQTLTREMTVENFDSHTHTYNISYAGSTDMPGVEFSLPSNITVNPGEKKNFTVTITIDPAAMEKTMDPAMEKTHNSVDPYGDGTELVPEQYRQFIASESGRILLTEGAATLRAPIHAAPKPASAMKVEGSSVEIPAGEHQANLKLTGTELNQRGYKSLLGAFEHGASIERTSPVKLDVSSNAKANMQHVGAASTAPALKASGGNPNDGLLAFGISTWANWDVVSTENTFTVNIDTDGNNRADYMLVTDRAKGIDFPIVRLYGYKNGNLEQIAYYPLNNAWGDTDTNMMDSNALVMAVPLKDLGLSAEKTKDIKYSVSATTQYAWTNVSETGWINYRPFDPKLWFSGTAATVPGFFADAPSSELVAHRAEGATDVKALFLHMHNTTGDLSGLNGAAGNRAQVLEVTEQQQLDPAPSRFTDVPAENQFYAEINWLAQRRITTGYPDGTFRPGENVERGAMAAYFYRLAGTPQFTAPDNPTFSDVPKSHPFYKEIEWMAARGITTGYGDGTFRPSASVNRDAMAAFFYRYANSPQFAAPAASPFKDVPANSQFYKEIAWLAEQGITKGWDDGTYRPGEPIHRDAMAAFLYRYSDKVLK
[2]
  pH values down to which activity is retained: ≥ 3.0

B3: Eglin C: an effective inhibitor of B. licheniformis subtilisin A (protein)
chain: TEFGSELKSFPEVVGKTVDQAREYFTLHYPQYDVYFLPEGSPVTLDLRYNRVRVFYNPGTNVVNHVPHVG
[3]
  inhibition of Rmep by high concentrations of Eglin C: only partly inhibited
[4]
  inhibition of B. licheniformis subtilisin A by Eglin C: effective inhibitor
